For assay [1], the target named is T1, Caspase-3 (Homo sapiens (Human)) (UniProt P42574).
T1 sequence: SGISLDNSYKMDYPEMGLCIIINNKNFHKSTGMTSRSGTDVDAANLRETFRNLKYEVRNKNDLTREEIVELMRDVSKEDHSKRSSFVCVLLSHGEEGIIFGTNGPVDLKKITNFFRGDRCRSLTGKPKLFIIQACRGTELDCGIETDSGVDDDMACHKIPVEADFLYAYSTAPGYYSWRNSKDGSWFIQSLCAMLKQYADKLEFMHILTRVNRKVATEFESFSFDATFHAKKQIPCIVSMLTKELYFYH

Assay [2] deals with DPP7 (Homo sapiens (Human)) (UniProt Q9UHL4).
In assay [3] the target is T2, Ubiquitin carboxy-terminal hydrolase L3 (Homo sapiens (Human)) (UniProt P15374).
T2 sequence: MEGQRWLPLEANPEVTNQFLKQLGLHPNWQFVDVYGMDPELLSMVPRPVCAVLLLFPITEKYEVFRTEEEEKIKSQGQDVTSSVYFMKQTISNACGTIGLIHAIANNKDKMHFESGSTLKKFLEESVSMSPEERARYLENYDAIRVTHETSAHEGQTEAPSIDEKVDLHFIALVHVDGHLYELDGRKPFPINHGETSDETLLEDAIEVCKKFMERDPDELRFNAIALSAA

The target in assay [4] is Beta secretase (Homo sapiens (Human)) (UniProt P56817).
For assay [5], the target named is T3, DPP3 (Homo sapiens (Human)) (UniProt Q9NY33).
T3 sequence: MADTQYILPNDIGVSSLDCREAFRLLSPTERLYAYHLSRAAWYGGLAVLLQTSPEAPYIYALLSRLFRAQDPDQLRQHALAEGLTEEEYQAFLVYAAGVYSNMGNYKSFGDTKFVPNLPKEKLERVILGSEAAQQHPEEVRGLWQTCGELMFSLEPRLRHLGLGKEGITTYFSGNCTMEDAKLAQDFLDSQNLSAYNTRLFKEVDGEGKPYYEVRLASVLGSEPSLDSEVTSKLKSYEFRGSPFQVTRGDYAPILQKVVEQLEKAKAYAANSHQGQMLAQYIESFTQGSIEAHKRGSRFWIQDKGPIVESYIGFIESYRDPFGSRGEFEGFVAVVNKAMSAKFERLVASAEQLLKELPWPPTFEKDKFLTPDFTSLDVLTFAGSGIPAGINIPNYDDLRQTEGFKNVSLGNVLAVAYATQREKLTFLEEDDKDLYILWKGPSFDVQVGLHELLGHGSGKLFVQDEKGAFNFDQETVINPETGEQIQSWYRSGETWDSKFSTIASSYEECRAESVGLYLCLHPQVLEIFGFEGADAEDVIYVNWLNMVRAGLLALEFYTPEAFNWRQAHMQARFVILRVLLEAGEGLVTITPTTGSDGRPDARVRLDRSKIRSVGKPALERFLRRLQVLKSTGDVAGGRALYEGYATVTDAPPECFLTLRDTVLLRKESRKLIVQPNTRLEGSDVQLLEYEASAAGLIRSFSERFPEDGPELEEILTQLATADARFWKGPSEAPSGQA

Assay [6] concerns the target Cathepsin B (Homo sapiens (Human)) (UniProt P07858).
The target of assay [7] is Matrix metalloprotease 9 (mutant Q279R) (Homo sapiens (Human)) (UniProt P14780).
Assay [8] addresses Ubiquitin carboxy-terminal hydrolase 10 (Homo sapiens (Human)) (UniProt Q14694).
For assay [9], the target named is Ubiquitin carboxy-terminal hydrolase 7 (Homo sapiens (Human)) (UniProt Q93009).
For assay [10], the target named is Matrix metalloprotease1 (Homo sapiens (Human)) (UniProt P03956).
Matrix metalloprotease1 (Homo sapiens (Human)), sequence (P03956 100-469): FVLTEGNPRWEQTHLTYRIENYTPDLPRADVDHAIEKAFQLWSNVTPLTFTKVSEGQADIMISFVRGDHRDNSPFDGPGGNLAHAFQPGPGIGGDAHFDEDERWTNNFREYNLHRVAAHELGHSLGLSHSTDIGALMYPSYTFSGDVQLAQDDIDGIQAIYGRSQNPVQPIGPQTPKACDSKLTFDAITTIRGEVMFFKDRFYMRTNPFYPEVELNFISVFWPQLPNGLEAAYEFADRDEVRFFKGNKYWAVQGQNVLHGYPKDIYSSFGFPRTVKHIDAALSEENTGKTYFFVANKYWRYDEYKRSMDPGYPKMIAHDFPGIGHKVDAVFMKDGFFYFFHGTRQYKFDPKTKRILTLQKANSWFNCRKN
For assay [11], the target named is T4, Recombinant human FAP (R&D systems, #3715-SE) (human).
T4 sequence: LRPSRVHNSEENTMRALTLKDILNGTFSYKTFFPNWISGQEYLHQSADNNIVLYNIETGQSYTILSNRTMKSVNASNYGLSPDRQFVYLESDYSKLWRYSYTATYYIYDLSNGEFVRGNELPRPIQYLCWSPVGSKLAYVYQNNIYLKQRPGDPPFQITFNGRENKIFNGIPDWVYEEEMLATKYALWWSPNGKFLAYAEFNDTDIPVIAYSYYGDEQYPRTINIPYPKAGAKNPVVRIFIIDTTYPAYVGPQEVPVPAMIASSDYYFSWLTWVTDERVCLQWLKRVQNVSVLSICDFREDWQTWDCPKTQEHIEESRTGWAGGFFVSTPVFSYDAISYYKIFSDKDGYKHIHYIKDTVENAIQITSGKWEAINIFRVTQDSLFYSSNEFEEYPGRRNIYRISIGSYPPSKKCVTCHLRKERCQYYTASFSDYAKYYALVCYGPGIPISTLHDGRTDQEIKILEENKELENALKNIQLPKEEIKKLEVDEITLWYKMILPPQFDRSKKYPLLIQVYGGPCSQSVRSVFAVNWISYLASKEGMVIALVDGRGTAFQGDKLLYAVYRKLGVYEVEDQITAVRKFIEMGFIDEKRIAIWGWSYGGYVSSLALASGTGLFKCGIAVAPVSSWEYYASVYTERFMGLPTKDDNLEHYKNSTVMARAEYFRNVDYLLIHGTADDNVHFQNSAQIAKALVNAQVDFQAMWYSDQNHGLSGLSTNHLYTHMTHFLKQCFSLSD

Ubiquitin carboxy-terminal hydrolase 10 (Homo sapiens (Human)), sequence (Q14694 whole entry): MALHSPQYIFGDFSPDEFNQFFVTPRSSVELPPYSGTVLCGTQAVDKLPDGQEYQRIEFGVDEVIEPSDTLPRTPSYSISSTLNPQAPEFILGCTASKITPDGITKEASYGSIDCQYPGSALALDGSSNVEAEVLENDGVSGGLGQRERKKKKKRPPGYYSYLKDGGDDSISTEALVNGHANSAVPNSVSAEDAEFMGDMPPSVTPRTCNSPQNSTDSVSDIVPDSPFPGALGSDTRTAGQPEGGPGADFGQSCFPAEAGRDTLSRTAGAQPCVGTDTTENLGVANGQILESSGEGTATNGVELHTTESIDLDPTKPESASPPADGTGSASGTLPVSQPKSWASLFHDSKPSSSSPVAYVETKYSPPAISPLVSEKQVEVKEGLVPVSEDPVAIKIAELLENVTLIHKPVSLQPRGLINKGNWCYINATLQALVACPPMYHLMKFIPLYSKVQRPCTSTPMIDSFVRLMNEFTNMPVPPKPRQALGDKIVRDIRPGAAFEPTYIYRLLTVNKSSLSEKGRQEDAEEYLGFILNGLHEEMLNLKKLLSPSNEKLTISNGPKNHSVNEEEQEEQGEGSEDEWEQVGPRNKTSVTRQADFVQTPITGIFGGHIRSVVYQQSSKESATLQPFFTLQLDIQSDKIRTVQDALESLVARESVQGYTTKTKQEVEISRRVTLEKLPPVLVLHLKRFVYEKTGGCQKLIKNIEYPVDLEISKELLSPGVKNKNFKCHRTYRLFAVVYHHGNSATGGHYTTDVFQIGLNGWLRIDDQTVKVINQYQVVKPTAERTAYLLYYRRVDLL

As for “Hex-[Cys(tMeBn(DOTA-AET))-Pro-Pro-Thr-Gln-Phe-Cys]-OH (peptide)”, the Percentage inhibition (%) at 10 µM is -1% in [1]; -7% in assay [2]; 0% in assay [3]; 7% in assay [4]; -1% in [5]; 2% in assay [6]. Besides, the Percentage inhibition (%) at 10 µM is 2% in assay [7], -1% in [8], 1% in assay [9] and -7% in assay [10].
Turning to “Hex-[Cys(tMeBn(DOTA-PP))-Pro-Pro-Thr-Gln-Phe-Cys]-Asp-NH2 (peptide)”, the Percentage inhibition (%) at 10 µM in assay [1] was -2%; in [2], -3%; in assay [3] it was 14%; in assay [4], -5%; in [6], 36%; in [7] it was 2%. Besides, the Percentage inhibition (%) at 10 µM in assay [8] was determined as 5%; in assay [9], 5%; in [10], 2%. Besides, in [11], the pIC50 Category (Activity) is over 8 pIC50.

Source of the values: US20220315554A1, “COMPOUNDS COMPRISING A […] LIGAND AND USE THEREOF” (priority 2019, published 2022).
